Four molecules from patent publication US20160279221A1 (UNITED STATES OF AMERICA AS REPRESENTED BY THE SECRETARY OF …, published 2016) can be followed below.

For test [1], the target named is T1, AMA1 on P. falciparum 3D7 strain parasites (Plasmodium falciparum). Briefly: cell-based or functional assay.
For test [2], the target named is T1, AMA1 on P. falciparum 3D7 strain …. Kind of test: cell-based or functional assay. This is another data set of the same source.
For test [3], the target named is T2, P. falciparum 3D7 AMA1 recombinant allelic protein (Plasmodium falciparum, UniProt P22621 83-531).
T2 chain: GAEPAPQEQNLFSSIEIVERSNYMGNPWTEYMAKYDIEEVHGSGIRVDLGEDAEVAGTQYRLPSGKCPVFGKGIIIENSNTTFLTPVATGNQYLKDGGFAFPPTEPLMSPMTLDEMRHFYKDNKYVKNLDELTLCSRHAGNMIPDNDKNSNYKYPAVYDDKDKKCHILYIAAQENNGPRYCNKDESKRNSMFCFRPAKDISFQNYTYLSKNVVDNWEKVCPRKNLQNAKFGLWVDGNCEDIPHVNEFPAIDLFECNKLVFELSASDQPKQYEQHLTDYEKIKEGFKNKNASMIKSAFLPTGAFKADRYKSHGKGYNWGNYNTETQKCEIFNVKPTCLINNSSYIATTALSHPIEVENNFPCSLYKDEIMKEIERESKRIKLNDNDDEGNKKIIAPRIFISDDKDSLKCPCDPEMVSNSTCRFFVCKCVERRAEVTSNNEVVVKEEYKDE
Kind of test: dot blot against 7 AMA1 allelic proteins.

Test [4] addresses T3, P. falciparum FVO AMA1 recombinant allelic protein (Plasmodium falciparum, UniProt P50490 83-531).
T3 sequence: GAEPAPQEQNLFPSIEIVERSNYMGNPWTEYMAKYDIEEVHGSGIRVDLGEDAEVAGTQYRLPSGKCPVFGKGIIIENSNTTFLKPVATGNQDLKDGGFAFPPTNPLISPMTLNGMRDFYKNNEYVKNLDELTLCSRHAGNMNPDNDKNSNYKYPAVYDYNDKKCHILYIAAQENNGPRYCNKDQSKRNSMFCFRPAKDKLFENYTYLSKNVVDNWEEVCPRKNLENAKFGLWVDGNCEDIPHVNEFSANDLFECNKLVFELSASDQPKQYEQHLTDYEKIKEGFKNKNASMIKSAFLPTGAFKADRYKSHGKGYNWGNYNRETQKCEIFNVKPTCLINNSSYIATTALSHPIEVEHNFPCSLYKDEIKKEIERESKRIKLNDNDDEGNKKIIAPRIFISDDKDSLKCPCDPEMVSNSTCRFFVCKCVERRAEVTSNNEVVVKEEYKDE
Kind of test: dot blot against 7 AMA1 allelic proteins.

In test [5] the target is T4, P. falciparum HB3 AMA1 recombinant allelic protein (Plasmodium falciparum, UniProt P50491 83-531).
T4 sequence: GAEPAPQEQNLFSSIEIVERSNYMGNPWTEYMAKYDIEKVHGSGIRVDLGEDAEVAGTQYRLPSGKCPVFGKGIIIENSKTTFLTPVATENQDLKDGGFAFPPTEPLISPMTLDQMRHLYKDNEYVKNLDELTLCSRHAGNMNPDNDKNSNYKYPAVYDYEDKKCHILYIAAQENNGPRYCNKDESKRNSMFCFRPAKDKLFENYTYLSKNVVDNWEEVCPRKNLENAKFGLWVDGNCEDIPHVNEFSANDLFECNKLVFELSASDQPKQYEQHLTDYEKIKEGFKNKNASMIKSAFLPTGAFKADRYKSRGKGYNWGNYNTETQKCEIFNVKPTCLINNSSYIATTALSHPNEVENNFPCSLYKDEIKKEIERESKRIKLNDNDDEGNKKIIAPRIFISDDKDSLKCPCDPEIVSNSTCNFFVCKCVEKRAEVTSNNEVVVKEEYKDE
Briefly: dot blot against 7 AMA1 allelic proteins.

The target in test [6] is T5, P. falciparum W2mef AMA1 recombinant allelic protein (Plasmodium falciparum, UniProt P50492 83-531).
T5 chain: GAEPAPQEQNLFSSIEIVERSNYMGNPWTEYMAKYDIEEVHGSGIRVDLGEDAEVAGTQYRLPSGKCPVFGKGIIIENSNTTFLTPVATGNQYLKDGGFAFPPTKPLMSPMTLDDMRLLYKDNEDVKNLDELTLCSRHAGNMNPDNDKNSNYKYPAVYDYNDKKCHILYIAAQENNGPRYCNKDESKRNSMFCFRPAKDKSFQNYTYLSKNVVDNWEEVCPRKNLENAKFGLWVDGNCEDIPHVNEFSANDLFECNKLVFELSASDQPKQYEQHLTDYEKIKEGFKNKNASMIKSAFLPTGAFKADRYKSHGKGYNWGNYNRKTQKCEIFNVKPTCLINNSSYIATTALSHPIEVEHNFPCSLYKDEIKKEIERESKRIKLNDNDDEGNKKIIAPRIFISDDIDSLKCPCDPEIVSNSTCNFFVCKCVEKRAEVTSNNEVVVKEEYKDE
Kind of test: dot blot against 7 AMA1 allelic proteins.

For test [7], the target named is T6, P. falciparum 7G8 AMA1 recombinant allelic protein (Plasmodium falciparum, UniProt P50492 83-531).
T6 sequence: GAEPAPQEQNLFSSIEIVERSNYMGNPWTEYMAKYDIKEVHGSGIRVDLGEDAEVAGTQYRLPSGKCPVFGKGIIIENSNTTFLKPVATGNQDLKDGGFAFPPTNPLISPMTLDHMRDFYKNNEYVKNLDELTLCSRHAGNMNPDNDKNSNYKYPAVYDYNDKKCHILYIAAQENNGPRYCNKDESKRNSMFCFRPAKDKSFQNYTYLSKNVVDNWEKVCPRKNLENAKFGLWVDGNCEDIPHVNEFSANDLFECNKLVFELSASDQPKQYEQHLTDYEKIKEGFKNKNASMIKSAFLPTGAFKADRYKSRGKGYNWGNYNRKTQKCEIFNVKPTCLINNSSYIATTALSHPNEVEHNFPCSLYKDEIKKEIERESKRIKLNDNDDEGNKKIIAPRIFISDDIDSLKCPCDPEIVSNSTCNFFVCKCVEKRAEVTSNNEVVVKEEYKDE
Briefly: dot blot against 7 AMA1 allelic proteins.

Numbering of substitutions follows the chain as printed.

B1: monoclonal antibody 1B10 (antibody, V domains shown)
VH: EVQLQESGPGLVQPSQSLSITCTVSGFSLNMYGVHWVRQSPGKGLEWLGVIWSGGTTDYNAAFISRLSINRDNSKSQVFFKMNSLQTDDTAIYYCVRNNGYYVDAMDYWGQGTSVAVSS
VL: DVVMTQTPLSLPVSLGDQASISCRSSQSLVHSNGNTYLHWYLQRPGQSPKLLIYKVSNRFSGVPDRFSGSGSGTDFTLKISRVEAEDLGVYFCSQSTLGPTFGGGTKLEMQR
With B1, the “IC30 concentration (30% inhibition against the 3D7 target parasites, GIA)” value in test [1] is 150 mg/L. Besides, the “Inhibition (GIA at 1 mg/ml against the 3D7 target strain)” value in test [2] was 65%.

B2: monoclonal antibody 4E8 (antibody, V domains shown)
VH: B1 VH with G26D, N30I, T56S, N70S, R71K, T87A, V96A, A116T
VL: B1 VL with S32N, R44K, S61F, L98H, G99V, M110I, Q111K
B2: the “IC30 concentration (30% inhibition against the 3D7 target parasites, GIA)” value in test [1] worked out at 150 mg/L. Moreover, the “Inhibition (GIA at 1 mg/ml against the 3D7 target strain)” value in test [2] is 67%.

B3: monoclonal antibody 4E11 (antibody, V domains shown)
VH: EVQLQESGPGLVRPSQSLSITCTVSGFSLPLYGVHWVRQSPGKGLEWLGVIWSGGSTDYNAAFVSRLSISKDNSKSQVFFEMNSLQADDTATYYCARNNGYYVDAMDYWGQGTSVTVSS
VL: B1 VL with R44K, Y54F, K79Q, V90F, L98H, G99V, M110I, Q111K
Consider B3, for which, in test [1], the “IC30 concentration (30% inhibition against the 3D7 target parasites, GIA)” value was found to be 220 mg/L. Besides, the “Inhibition (GIA at 1 mg/ml against the 3D7 target strain)” value in test [2] is 62%.

B4: monoclonal antibody 1E10 (antibody, V domains shown)
VH: EVQLQESGAELAKPGASVKLSCKASGYTFTNYLMHWIKQRPGQGLEWIGYINHGSGYTNYNQKFIDRATLTADKSSSTAYMQLRSLTYEDSAVYYCVHGYFDVWGTGTTVTVSS
VL: QIVLTQSPTIMSASPGEKVTMTCSASSSVTYMHWYQQKPGTSPKRWIYDTSKLASGVPARFSGSGSGTSYSLTISSMEAEDAATYYCHQRSSYPTFGGGTKLEIKR
notes: Mouse monoclonal raised against QV, purified from ascites on Protein G; also called mAb 1E10; Monoclonal 1E10
Turning to B4, the “IC30 concentration (30% inhibition against the 3D7 target parasites, GIA)” value in test [1] stood at 1900 mg/L. The “Inhibition (GIA at 1 mg/ml against the 3D7 target strain)” value in test [2] was determined as 20%. Moreover, the binding result in test [3], in test [4], in test [5], in test [6] and in test [7] was “binds” in each case.
